In patent US6897196B1, “pH sensitive lipids based on ortho ester linkers, composition and method” (The Regents of the University of California, priority 2001, dated 2005):

Columns and labels:
[1] = Acid sensitivity of POD as monitored by thin layer chromatography; assay type: physicochemical; details: for degradation of POD (disappearance of the compound spot at Rf~0.4): within one hour
Experimental: Conical polystyrene microcentrifuge tubes (0.5 mL) containing 20 μL 100 mM sodium phosphate buffer of different pH were pre-warmed at 37° C. for 30 min and silica gel TLC plates (WhatmanCE from Whatman Ltd, Maidstoned, Kent, England) were pre-equilibrated with the solvent system (CHCl3/MeOH/NH4OH=100:15:1) by running the plates without samples followed by brief air-drying. Eight milligrams of POD was dissolved into 100 μL water by vortexing and 20 μL of the solution was added into each of the pre-warmed tubes and mixed thoroughly. The tubes were incubated at 37° C. and 10 μL of the solutions were aliquoted at different time points and mixed with 10 μL of 10% concentrated NH4OH (30% w/w) in acetone to stop the hydrolysis. Five microliters of the mixture was spotted onto pre-equilibrated TLC plates. Three microliters of distearoyl glycerol, monomethyl ether of PEG2000 and POD in 10 mg1 mL CHCl3 solution were also spotted as standards. TLC plates were developed, heated at 150° C. for 5 min and stained in I2 chamber for 1 h to observe the locations of POD and its degradation products.

[2] = Critical Micelle Concentration of POD dispersion; assay type: physicochemical; details: 150 mM Tris/CL buffer pH 9.0
Experimental: In one example 10 μmoles of methoxypolyethylene glycol 2000-diortho ester-distearoyl glycerol conjugate was dried from a chloroform solution unto the sides of a glass vessel. […] Under these conditions the POD has a Critical Micelle Concentration (CMC) of about 10 μM and micelles will be formed. An aliquot of 0.05 mL of the POD micelles is added to 1 mL of a 10 mM (total lipid) liposome suspension consisting of DSPC:Chol in the mole ratio of 55:40 in a 0.14 M NaCl-10 mM Tris, pH 8.0 buffer. The mixture is incubated at 37° C. for 2 hours. After this time the POD is incorporated into the liposome and the liposome can be injected into an animal.

**Q.** For “3,9-Diethyl-3-(2,3-distearoyloxypropyloxy)-9-(methoxypolyethyleneglycol2000-1-yl)-2,4,8,10-tetraoxaspiro[5,5]undecane [POD]”, which “degradation of POD” value ([1]; buffer of neutral pH 7.4, 37° C., over 3 hours) is on record?
**A.** most of the conjugate remained intact

**Q.** What about the “approximate half-life of POD degradation” value ([1]; buffer of pH 6, 37° C.) of the same substance?
**A.** ~2.5 h

**Q.** What about the “degradation of POD (disappearance of the compound spot at Rf~0.4)” value ([1]; buffer pH 4, 37° C.) of the same substance?
**A.** completely degraded

**Q.** What about the “degradation of POD (disappearance of the compound spot at Rf~0.4)” value ([1]; buffer pH 5, 37° C.) of the same substance?
**A.** completely degraded

**Q.** What about the “Critical Micelle Concentration (CMC)” value [2] of the same substance?
**A.** about 10 μM
